The domain aggregation screens of Martell et al. (2025)

Test: soluble fraction after stress (log2 fold change); higher = more stays soluble; pooled small domains, quantitative proteomics
Settings: stress: pH 4
How it was run: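 With high-throughput quantitative proteomics, pooled custom libraries of small protein domains were measured after pH 4 stress. Each domain's soluble amount after the stress gives a fold change taken as aggregation propensity. Higher log2 values mean more of the domain stayed soluble.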

Sequence	soluble fraction (log2)
HMNTKQRTAVMRILKQSSDPVSADDVFAALKDEYPSLALSTVYRNLERFADESMVKKDVWSDGIVRYSLAD	-0.471
HMRYTAAEMAKKLDISRSYLYYLKEAGVVEIEKNENGKPIWTESVYNQLFEYIKKNHRTEEADNTQ	-0.61
HMTMEQAEFLSRQFNLLSQRLNDPSIEWQDIADLRSEYTGEDEHRDTIRKGAKLFYEYLEAGWIKN	-0.867
HMDLMSTNEKLLYTMRYLISKSLDGAITEEEIRRLDRLIIENSQARAYYVEYLQIHTHLRKLMQQNPELK	-1.15
HMGSEYILTIIPTPADATVFINGVKKNSASGVNGQILSWEVTKEGYIPQSGTFTINGKNETIEVVLQPQT	-0.577
HMNMEDIADKIGRLYDNLPDDLKLMIKYRDIDDMTYDEIARKANLPIGTVRSRLHRARDILLREI	-0.108
HMFNIIARQEIDEILYEYKIENSEDYKNRDPEELAEIYENIKTVQENHDLSDDDVEELLKSIFSDY	-2.2
HMSGGNTSAFKGKLNYEYRGNDTIITGSTYPVKELIKKAGGRWDPGSSAWIIKGRHVSDNEIF	-0.317
HMEITSSNELKKMISNLINSENKNNPISDSNIVEKLKENDFLVARRTVAKYRKLLGIKNVNQRKE	0.25
HMKQLQIPYSFAKRHGVLLRYEGDQAFIVRRDNTSMLALQEARRLLGHPAHYLLYSEQEFNQLLSASFA	-0.455
HMESSREVSFSEFMKQIDSGRVSSVKLDGETIYVRNSDGTSYKVIQPLGTDLIGVLRKSDIDVQAIKQ	0.165
HMQTASVRFADGQLEVKQKGLQRVSVYSLNGMTVANKAVQGQDYVTISLPRAAYIVKITTQNGSFTKVI	0.218
HMLKASEVLPYVFTDKFFIDDLNLKQDQILGFLEYIDSKLPSQKLLQVSQQFQLIDFLINESKNYKNQ	-0.252
HMSVVKPIYIGMMTSEVEAIMGKPFEVITNNNSKNNQLWIYKYQDKRSVMLTFTNYKLIKIE	-0.0356
HMVRDPYELLEVPREATPDEIKSAFRKLAARHHPDRNPDDPGAQERFKEINAAYQLLSDPQKRAMFDRFGA	0.331
HMAEKAVELTENEKAIQTILSNGALEIGELKTKLELSGKQWDVALKGLAKHGITQVSKVEGVVTVGL	0.124
HMGSEISLNAFNIPKGSVSVTAGGTKLVENQDYTVDYTLGRIKILNEGILNSGVPIQVNFENNTLFN	-0.087
HMNTFDLSKLEEIILASRDKAMKTKEFTELDNLKNLFITAGLDVQMSKNGIKLIKGPKFNSSLLEDF	-0.741
HMLSRKEVFTVSQKDIEKNPIGAADKFFDGHVGIHKLLVVDEEDRLRGLFTLSDIERINDEQ	-0.0114
HMNMYTVTGRLVDQDGVPQANALVTIDSSSQQTRTSPQGFYLIKVFGTEPSTIKFLVDGYDPQIVNFTP	-0.278
HMKELTARQIEILDFITNYEWRHGYWPSIRNIQVQFSYKSTNAVMGHLRALERKGAIERIPGQARTFRIH	0.102
HMRFTVSDKMDMLLKSLSAGQSMPFKSLFASASTKSEVIVTFLALLELMKLNQFVVWQDQILGEIEIERR	-0.162
HMKEKPLWAIRITELREEHYFTQTDVSKALGIAQTTYAGYETGRHEPDFETMIKIADIYKVSLDYLIGR	-0.288
HMSAEAYLSFVKKENLRAAVVNYENNKEWLKDVPHERLLDLAVFAKVDMGEPGMSMKFNNWLLSR	-1.12
HMEKIKNLTVTEFNLIANKNPSGSYDRITREALLHIIHKLESSYEAHTDLERKLFYKFRKAKFNAL	-0.715
HMLPDPIYEAFMMASDLGIVVRNGPQYAYPDKETGEVLYKALGREKFLQLMKDNDGLLTSIETEIRSM	-1.3

Sequence	soluble fraction (log2)
HMQPKKLNMYYDYVRQLLESHPYLSAAQIEDRLKEEFTELPMVHSKTVFNFVENIRLQHGINKHA	0.0853
HMTDLEDDEKKVYRLIVESGEGIDFDTLSERSGFSATELPSILLFLMMKEMIDELPGKIYRYSE	-0.327
HMSKITNALLMMKLLSNGKVYSVKELSEELGVTERMVRNYKEQLEMSGYIIESFKGPGGGYFINKN	0.207
HMNEAMIMIDLKGKSRDEAVKELDELNLKYRFTGNGIVKDQKPKAGEEINSDTVVEVELSEIK	-0.105
HMNNYNDSVQKIINYIADNLNENLSVRKLADKMPMSVSHFNRVFQKYTGDSPYAYVMAMRIKKAKYL	-0.565
HMEGRHFRILYILLNNERVTAPELAEEFGVSVRTIYRDIDTMSAAGIPIYMQGGRKGGIYLLEGY	-1.61
HMKEILVGVEPLSKKQIIIKKGIKGRSDYIIFEKKNYGLPENLKPEEVSIEIALKIIDEKKKRKA	0.22
HMLHPLLWAVDEPTPVTVRTRPEYVPDVVRWLMQPESQREHDGVVDLRYTVTHRAAFRSRIYVLGTRVTIP	0.17
HMDKIYVYTTRGQVIELPRGSTAIDFAYKIQTDIGNMIIAAIVNDKLVDANYVLHNKDRVKIVTS	-0.725
HMASELVSADEKYSGLVSYLLGRVVVVDQIDHAIALAKKYRYSLRIVTLDGELLSPGGSMTGGAFKNS	0.2
HMTDITSAITRLNKYNKSGTPLTIDSVTPEALQTLQAKVSSAFEIGAVNQQTYDDVTKDIATLQQYLSSA	-0.102
HMSKSENLYSAARELIPGGVNSPVRAFTGVGGTPLFIEKADGAYLYDVDGKAYIDYVGSWGPMVLGHNHP	-0.279
HMHMNFGEILQTKRKEKGFTQEELAHQLLVSSKTISNWETNKTTPDIDNVIRISQLFDISLNQLLLE	-0.424
HMDVQTVTVIENVNVRKSASENGQKLGLAYTGEKLELLMKQADGWTRVKYNGETAYVKSDYV	-0.0843
HMTYSAFITARNKRIAEEYSVLLDSLNISNNVIYRLGSWVVEVNVSDHSRAIDEIYSYERSGRIDKV	-0.534
HMVSLNKTEFIAVKKASASELRDKINSLGLDVLKDATISADARTNQIIATGPKYALEQIKMLVVGLDVSS	0.313
HMAELNLPVRKIGGEDYYYRQVKKKETIYGISKELGITKEDIIKYNPSVASGLQRNQILYFPVKDFK	0.322
HMGPGFVGGSVLSGGNRGEGDPVANAQVFITDMDDNVVAFTKTDAEGNFDMTNLAYGDYKMYVDILNK	-0.741
HMDPYEYQLELEKLINNATELNKKYNYDPLKDKILAADAVKNSLETYVLQNYIVALENEIKQTLNQYQIL	-0.754
HMNTQGWEIFEGRITTADTDLNPSGWIRIDGQRIFVISDAGFIDKGKEVSILSVDGNRVLVRK	-0.632
HMRDSLVGLEGVVVREVDDETLAGKVQIGSMEWSARSESGRIPAGRRVVVLRAEGVHIVVKEV	-0.121
HMGNFGDLLKILLDEKELSMGELSKKSGIDKSTISRIANNKQKPNINHLEKMAIHLNINLEELLKASGYEF	-0.857
HMEAAIRNALSRVENPDETQRARIYRTAHDALIRNLENRGITDPEQVRPQVSRLKDLISVIEREYHG	-0.0565
HMIEDMQQWIRQIREIVSNRLDLTRNISDDEIREVISDIVMEQSRQQYMSLNEKKTLMEGVFNSMR	-0.977
HMNIIATHTVPAIEQKIRLQEYAISIFPQINSRSALKKAIAKKLVLLDGERASTADWIQPGQKIELLEDK	-0.274
HMKRLPFSFAKRFGVVVEDGEPPIVHHRDGASAETLLEVRRRLGQVFTLQRHDAEAFERLLTQAYQR	-0.837

Sequence	soluble fraction (log2)
HMNLSDIETWLRELSLEKYALAFSEAEIDFETLPELTEDDLKEVGLPVGPRRKVWGAIQLLRTTD	-1.37
HMQDTYQVKLLTNLNIRKSPNGTIVQKGGAKKGIIYTIVETSGTWGRLKSNAGWISVSDKYVTK	0.102
HMSQTELIIVEEEMDGERLDAFLAEQVEQLSRSAVKNLINEGQVLVNGAKQKASYHVREGDEISIEIPEPQ	-0.455
HMDLRIIKTKKAIKTAFLNLLKENKYHNITISAISETALINRKTFYAHYETKDELYADVIEDALRVLSP	-1.04
HMNSFGWESLIDKEGIADTDLHPSGWVRIDDRRIFVVSEGDFIDKGSGVTVLSVDGNRVVVRELI	-1.03
HMNQYRKLDGDVQNQIIYILSEYPKLPATIVYQRLLDTNTIVKKDVSLSTVNRFVQKYKDSKGIT	0.0672
HMDDATDLPYQEFRTQVSDGQVKIAQFNNNTGKITFESISGDKFKTSGPLELSSDDERLFLENIEDFKFFT	-1.1
HMEDQVITQFNMRLIRAVMPQGAPMIVVYEDPKDYPGLFVARLFDGRKSTHLIALADTLEDI	-0.351
HMQFSAVVLDMETRRQVAGVAVYINPKGVVKTDMRGRFVIDGAFNSVTLVRQGYESLTLERSEMTDSIWM	-1.07
HMSNEDAYIKLRNGFLATLSEADLLLFTLREEGKTQKEIADQLGYKTHSAVSKRLQTMRGQFEGYLKTQ	-0.818
HMNTDIHRLLDEAFVRVDMTPDAQHLKEEIRANLVARVDELEASGVPSADAARRAIAELGDVRELL	-0.671
HMTGKASEIAALLEQRIAAGDYPAGSKLPSERELAASFHVSRNTIRDAIALLAARKIVSTKWGAGTVVLG	-0.0946
HMLQLSDAISRVESFLQGQNRNLAFSIDENTERSVVTVLDSDTGDVIRQIPSEELLVLAKRIQELQQD	-1.19
HMQRLSRREIEVLHWIAEGKSDWQIGQILSISAKTVNYHTENLKRKFGVATRMQAVVSAIKQGAFVPGE	-1.31
HMRTFFEIEQLKAYVGEEIQVKFEADSHKQTVLGKLISISEDFIEIENSKKGNLKISLDNYLTSKLIY	-0.468
HMRPEFVVALSGADLGKLHRLYELGEVLSREDDAEGVTHAVLRVPDKHEHAFHAEFPQARPM	-0.19
HMIRDVDYNTFVSMVQEGKVGQVEIQEQNNRILFTDKDERTVYKTAMVPDSDLISRLLEAGVSTS	-0.737
HMSDVTPDVVRALRKRLKLTQVQFGEIFGMTSKKVSAWEHGKAEPTEEQKQKIQSLLKENNEQ	0.141
HMEKVDAISQSILDVLKKNNGYLAVTDKSDPDEIYGLFQISKKTFKKAIGSLYRDRLISIEEEGIRLR	-0.237
HMGVGIAEAMKHVADEDYGDLSSEFQRIFSAVDGGSTLGDAVRAQMRATSSAGLRRTLSVLAMSVE	-0.314
HMPKLPIIYVLDGHVNKNALTTSGKNKVWIEHELKKHHINSIKDVLIAMTDTEGKFYYQLYD	-0.0791
HMESKDIRYVQLQTVSPEEVLQALALIMPRSDVYVEPTGKLVVLHGSKETLDRAEELILALDNAV	-0.641
HMSETTSRVLQLLGLLQARRVWTGQELADRLGVTGRSVRRDIERLRDLGYPVHASKGRDGGYQLGA	-0.222
HMTTVDYDALRAAILQQVVSEDTTPALTTENTEIKYKFKFGLDTWVDLDGGKIAPAVSAKSYEIQISFKG	0.12
